Experimental data published in PMC10397247.
One block for each binder: values may come before it.

Key:
4H2621-AA = molecular target: T1, 4H2621-AA; assay: two-hybrid library CCmax; settings: mean of both orientations;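 further: natural log of median RNA to DNA barcode read ratio; higher means stronger binding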
T1 chain: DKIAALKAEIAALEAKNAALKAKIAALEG

4H1867-AA = molecular target: T2, 4H1867-AA; assay: two-hybrid library CCmax;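 further: natural log of median RNA to DNA barcode read ratio; higher means stronger binding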
T2 chain: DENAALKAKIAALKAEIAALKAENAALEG

4H2580-AA = molecular target: T3, 4H2580-AA; assay: two-hybrid library CCmax; settings: mean of both orientations;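 further: natural log of median RNA to DNA barcode read ratio; higher means stronger binding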
T3 chain: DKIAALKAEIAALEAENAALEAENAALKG

4H3782-AA = molecular target: T4, 4H3782-AA; assay: two-hybrid library CCmax; settings: mean of both orientations;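 further: natural log of median RNA to DNA barcode read ratio; higher means stronger binding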
T4 chain: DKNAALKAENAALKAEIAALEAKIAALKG

4H2699-AA = molecular target: T5, 4H2699-AA; assay: two-hybrid library CCmax; settings: mean of both orientations
T5 chain: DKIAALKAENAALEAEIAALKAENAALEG

4H483-AA = molecular target: T6, 4H483-AA; assay: two-hybrid library CCmax; settings: mean of both orientations
T6 chain: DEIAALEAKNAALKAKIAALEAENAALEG

4H3049-AA = molecular target: T7, 4H3049-AA; assay: two-hybrid library CCmax; settings: mean of both orientations
T7 chain: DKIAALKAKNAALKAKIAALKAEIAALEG

4H3939-AA = molecular target: T8, 4H3939-AA; assay: two-hybrid library CCmax; settings: mean of both orientations
T8 chain: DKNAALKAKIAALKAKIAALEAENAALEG

4H3414-AA = molecular target: T9, 4H3414-AA; assay: two-hybrid library CCmax; settings: mean of both orientations
T9 chain: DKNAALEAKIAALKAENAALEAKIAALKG

4H1558-AA = molecular target: T10, 4H1558-AA; assay: two-hybrid library CCmax
T10 chain: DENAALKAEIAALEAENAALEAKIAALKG

4H2728-AA = molecular target: T11, 4H2728-AA; assay: two-hybrid library CCmax; settings: mean of both orientations
T11 chain: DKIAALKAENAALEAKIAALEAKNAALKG

4H2903-AA = molecular target: T12, 4H2903-AA; assay: two-hybrid library CCmax; settings: mean of both orientations
T12 chain: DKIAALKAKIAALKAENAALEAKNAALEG

4H341-AA = molecular target: T13, 4H341-AA; assay: two-hybrid library CCmax; settings: mean of both orientations
T13 chain: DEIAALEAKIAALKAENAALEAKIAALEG

4H2961-AA = molecular target: T14, 4H2961-AA; assay: two-hybrid library CCmax; settings: mean of both orientations
T14 chain: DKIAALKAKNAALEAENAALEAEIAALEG

4H380-AA = molecular target: T15, 4H380-AA; assay: two-hybrid library CCmax; settings: mean of both orientations
T15 chain: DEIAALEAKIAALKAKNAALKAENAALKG

4H63-AA = molecular target: T16, 4H63-AA; assay: two-hybrid library CCmax; settings: mean of both orientations
T16 chain: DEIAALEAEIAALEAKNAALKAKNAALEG

4H2608-AA = molecular target: T17, 4H2608-AA; assay: two-hybrid library CCmax
T17 chain: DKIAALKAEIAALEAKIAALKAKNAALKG

4H446-AA = molecular target: T18, 4H446-AA; assay: two-hybrid library CCmax; settings: mean of both orientations
T18 chain: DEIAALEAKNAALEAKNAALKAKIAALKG

4H1913-AA = molecular target: T19, 4H1913-AA; assay: two-hybrid library CCmax; settings: mean of both orientations
T19 chain: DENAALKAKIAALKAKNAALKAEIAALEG

4H3969-AA = molecular target: T20, 4H3969-AA; assay: two-hybrid library CCmax; settings: mean of both orientations
T20 chain: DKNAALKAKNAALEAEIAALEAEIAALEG

4H464-AA = molecular target: T21, 4H464-AA; assay: two-hybrid library CCmax; settings: mean of both orientations
T21 chain: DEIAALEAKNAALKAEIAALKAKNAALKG

4H249-AA = molecular target: T22, 4H249-AA; assay: two-hybrid library CCmax; settings: mean of both orientations
T22 chain: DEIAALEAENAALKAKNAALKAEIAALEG

4H3129-AA = molecular target: T23, 4H3129-AA; assay: two-hybrid library CCmax; settings: mean of both orientations
T23 chain: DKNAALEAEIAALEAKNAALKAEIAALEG

4H3629-AA = molecular target: T24, 4H3629-AA; assay: two-hybrid library CCmax; settings: mean of both orientations
T24 chain: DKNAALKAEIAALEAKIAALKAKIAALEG

4H3595-AA = molecular target: T25, 4H3595-AA; assay: two-hybrid library CCmax; settings: mean of both orientations
T25 chain: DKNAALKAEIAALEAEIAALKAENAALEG

4H2774-AA = molecular target: T26, 4H2774-AA; assay: two-hybrid library CCmax; settings: mean of both orientations
T26 chain: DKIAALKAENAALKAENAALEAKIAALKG

4H342-bN = molecular target: T27, 4H342-bN; assay: two-hybrid library CCNG1
T27 chain: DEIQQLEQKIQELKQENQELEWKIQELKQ

4H491-bN = molecular target: T28, 4H491-bN; assay: two-hybrid library CCNG1
T28 chain: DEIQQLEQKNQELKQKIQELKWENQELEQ

4H3632-bN = molecular target: T29, 4H3632-bN; assay: two-hybrid library CCNG1
T29 chain: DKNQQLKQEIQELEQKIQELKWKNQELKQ

4H48-bN = molecular target: T30, 4H48-bN; assay: two-hybrid library CCNG1
T30 chain: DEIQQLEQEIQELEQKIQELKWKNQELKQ

4H496-bN = molecular target: T31, 4H496-bN; assay: two-hybrid library CCNG1
T31 chain: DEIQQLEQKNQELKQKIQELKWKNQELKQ

4H4001-bN = molecular target: T32, 4H4001-bN; assay: two-hybrid library CCNG1
T32 chain: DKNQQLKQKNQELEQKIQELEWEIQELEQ

4H496-bH = molecular target: T33, 4H496-bH; assay: two-hybrid library CCNG1
T33 chain: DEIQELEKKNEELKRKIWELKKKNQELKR

4H3632-bH = molecular target: T34, 4H3632-bH; assay: two-hybrid library CCNG1
T34 chain: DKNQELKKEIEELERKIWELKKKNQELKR

interaction score (4H2621-AA): 1.29
interaction score (4H1867-AA): -1.23
interaction score (4H2580-AA): -1.57
interaction score (4H3782-AA): -0.467
interaction score (4H2699-AA): -0.582
interaction score (4H483-AA): 0.272
interaction score (4H3049-AA): 1.32
interaction score (4H3939-AA): -0.411
interaction score (4H3414-AA): 1.1
interaction score (4H1558-AA): 0.452
interaction score (4H2728-AA): -0.226
interaction score (4H2903-AA): -0.294
interaction score (4H341-AA): 1.27
interaction score (4H2961-AA): -1.19
interaction score (4H380-AA): 1.48
interaction score (4H63-AA): -0.799
interaction score (4H2608-AA): -1.1
interaction score (4H446-AA): -0.543
interaction score (4H1913-AA): 1.75
interaction score (4H3969-AA): -1.28
interaction score (4H464-AA): 0.907
interaction score (4H249-AA): 1.51
interaction score (4H3129-AA): 2.15
interaction score (4H3629-AA): 0.444
interaction score (4H3595-AA): -1.53
interaction score (4H2774-AA): -0.715
B1: 4H1558-AA (peptide)
chain: DENAALKAEIAALEAENAALEAKIAALKG

interaction score (4H342-bN): 1.33
interaction score (4H491-bN): 1.47
interaction score (4H3632-bN): 0.807
interaction score (4H48-bN): -1.99
interaction score (4H496-bN): 1.56
interaction score (4H4001-bN): -0.0564
B2: 4H342-bN (peptide)
chain: DEIQQLEQKIQELKQENQELEWKIQELKQ

interaction score (4H496-bH): -2.56
interaction score (4H3632-bH): -0.234
B3: 4H3632-bH (peptide)
chain: DKNQELKKEIEELERKIWELKKKNQELKR
